Laboratory results taken from patent US20170226213A1 (Daiichi Sankyo, published 2017).

B1: FGFR4 binding Fab U4-1 (Fab, V domains shown)
VH: EVQLLESGGGLVQPGGSLRLSCAASGFTFSRNYMSWVRQAPGKGLEWVSAISGSGGSTYYADSVKGRFTISRDNSKNTLYLQMNSLRAEDTAVYYCARVTSPGAFDIWGQGTLVTVSS
VL: QSVLTQPPSASGTPGQRVTISCSGGTSNIGTNTVNWYQQLPGTAPKLLIYRNNQRPSGVPDRFSGSKSGTSSSLAISGLRSEDEADYYCAAWDDSLNGPYVVFGGGTKLTVLG
B2: FGFR4 binding Fab U4-4 (Fab, V domains shown)
VH: EVQLLESGGGLVQPGGSLRLSCAASGFTFSSNYMSWVRQAPGKGLEWVSLISGSGGSTYYADSVQGRFTISRDNSKNTLYLQMNSLRAEDTAVYYCARNTAGFGYFDLWGQGTLVTVSS
VL: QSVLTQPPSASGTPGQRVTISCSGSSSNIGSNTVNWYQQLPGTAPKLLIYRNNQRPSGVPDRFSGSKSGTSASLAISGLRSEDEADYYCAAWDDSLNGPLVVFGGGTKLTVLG
B3: FGFR4 binding Fab U4-5 (Fab, V domains shown)
VH: EVQLLESGGGLVQPGGSLRLSCAASGFTFSSNYMNWVRQAPGKGLEWVAVISYDGSNKYYADSVKGRFTISRDNSKNTLYLQMNSLRAEDTAVYYCVTKSRDFWRGPFDYWGQGTLVTVSS
VL: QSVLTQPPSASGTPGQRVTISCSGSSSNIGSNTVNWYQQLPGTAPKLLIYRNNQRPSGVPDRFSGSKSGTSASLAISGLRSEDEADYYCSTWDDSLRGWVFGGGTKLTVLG
B4: FGFR4 binding Fab U4-2 (Fab, V domains shown)
VH: EVQLLESGGGLVQPGGSLRLSCAASGFTFSKAWMSWVRQAPGKGLEWVSAISGSGGSTYYADSVKGRFTISRDNSKNTLYLQMNSLRAEDTAVYYCARLYSYGDFDHWGQGTLVTVSS
VL: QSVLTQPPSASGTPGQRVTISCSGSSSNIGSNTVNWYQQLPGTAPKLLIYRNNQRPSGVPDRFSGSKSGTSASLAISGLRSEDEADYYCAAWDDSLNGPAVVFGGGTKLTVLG
B5: FGFR4 binding Fab U4-7 (Fab, V domains shown)
VH: EVQLLESGGGLVQPGGSLRLSCAASGFTFSDYYMSWVRQAPGKGLEWVSAISGSGGSTYYADSVKGRFTISRDNSKNTLYLQMNSLRAEDTAVYYCATLATYGPFDDWGQGTLVTVSS
VL: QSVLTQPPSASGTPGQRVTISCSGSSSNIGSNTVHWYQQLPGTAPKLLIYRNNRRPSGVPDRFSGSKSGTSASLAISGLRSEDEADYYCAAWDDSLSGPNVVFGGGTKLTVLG
B6: human anti-FGFR4 antibody U4-7 (antibody, V domains shown)
VH: EVQLLESGGGLVQPGGSLRLSCAASGFTFSDYYMSWVRQAPGKGLEWVSAISGSGGSTYYADSVKGRFTISRDNSKNTLYLQMNSLRAEDTAVYYCATLATYGPFDDWGQGTLVTVSS
VL: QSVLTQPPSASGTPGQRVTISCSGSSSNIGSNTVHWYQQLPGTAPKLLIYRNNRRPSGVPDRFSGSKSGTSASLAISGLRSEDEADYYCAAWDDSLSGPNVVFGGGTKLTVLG
notes: IgG format
B7: FGFR4 binding Fab U4-8 (Fab, V domains shown)
VH: EVQLLESGGGLVQPGGSLRLSCAASGFTFSSNYMSWVRQAPGKGLEWVSSISGSGGRTYYADSVKGRFTISRDNSKNTLYLQMNSLRAEDTAVYYCARMTVFGAATLWGQGTLVTVSS
VL: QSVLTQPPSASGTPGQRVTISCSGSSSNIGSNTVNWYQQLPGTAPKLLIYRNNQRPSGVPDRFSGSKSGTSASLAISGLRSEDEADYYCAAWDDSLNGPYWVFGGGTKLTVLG
B8: human anti-FGFR4 antibody U4-3 (antibody, V domains shown)
VH: EVQLLESGGGLVQPGGSLRLSCAASGFTFSDYYMSWIRQAPGKGLEWVSTISGSGGSTYYADSVKGRFTISRDNSKNTLYLQMNSLRAEDTAVYYCARLTAYGHVDSWGQGTLVTVSS
VL: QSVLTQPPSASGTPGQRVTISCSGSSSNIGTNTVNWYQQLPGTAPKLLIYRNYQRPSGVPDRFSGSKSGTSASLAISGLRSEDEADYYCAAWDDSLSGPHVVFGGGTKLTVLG
B9: human anti-FGFR4 antibody U4-9 (antibody, V domains shown)
VH: EVQLLESGGGLVQPGGSLRLSCAASGFTFSDYYMSWIRQAPGKGLEWVSTISGSGGSTYYADSVKGRFTISRDNSKNTLYLQMNSLRAEDTAVYYCARLTAYGHVDSWGQGTLVTVSS
VL: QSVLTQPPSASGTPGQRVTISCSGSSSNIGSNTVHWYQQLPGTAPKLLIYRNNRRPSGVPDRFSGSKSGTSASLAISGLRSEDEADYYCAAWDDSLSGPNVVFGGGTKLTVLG
notes: IgG format
B10: human anti-FGFR4 antibody U4-5 (antibody, V domains shown)
VH: EVQLLESGGGLVQPGGSLRLSCAASGFTFSSNYMNWVRQAPGKGLEWVAVISYDGSNKYYADSVKGRFTISRDNSKNTLYLQMNSLRAEDTAVYYCVTKSRDFWRGPFDYWGQGTLVTVSS
VL: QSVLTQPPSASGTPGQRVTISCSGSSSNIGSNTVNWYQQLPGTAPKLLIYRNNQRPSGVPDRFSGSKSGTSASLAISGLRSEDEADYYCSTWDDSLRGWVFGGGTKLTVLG
notes: IgG format
B11: human anti-FGFR4 antibody U4-6 (antibody, V domains shown)
VH: EVQLLESGGGLVQPGGSLRLSCAASGFTFSDYYMNWVRQAPGKGLEWVSAIGGSGDRTYYADSVKGRFTISRDNSKNTLYLQMNSLRAEDTAVYYCALGGSYFGYWGQGTLVTVSS
VL: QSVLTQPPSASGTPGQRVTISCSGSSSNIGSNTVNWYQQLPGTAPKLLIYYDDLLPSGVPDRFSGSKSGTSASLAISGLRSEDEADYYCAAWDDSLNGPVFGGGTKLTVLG
notes: IgG format
B12: human anti-FGFR4 antibody U4-8 (antibody, V domains shown)
VH: EVQLLESGGGLVQPGGSLRLSCAASGFTFSSNYMSWVRQAPGKGLEWVSSISGSGGRTYYADSVKGRFTISRDNSKNTLYLQMNSLRAEDTAVYYCARMTVFGAATLWGQGTLVTVSS
VL: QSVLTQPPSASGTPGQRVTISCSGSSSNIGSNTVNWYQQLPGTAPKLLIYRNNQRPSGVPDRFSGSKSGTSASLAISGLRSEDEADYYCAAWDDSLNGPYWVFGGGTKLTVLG
notes: IgG format
B13: human anti-FGFR4 antibody U4-1 (antibody, V domains shown)
VH: EVQLLESGGGLVQPGGSLRLSCAASGFTFSRNYMSWVRQAPGKGLEWVSAISGSGGSTYYADSVKGRFTISRDNSKNTLYLQMNSLRAEDTAVYYCARVTSPGAFDIWGQGTLVTVSS
VL: QSVLTQPPSASGTPGQRVTISCSGGTSNIGTNTVNWYQQLPGTAPKLLIYRNNQRPSGVPDRFSGSKSGTSSSLAISGLRSEDEADYYCAAWDDSLNGPYVVFGGGTKLTVLG
B14: human anti-FGFR4 antibody U4-2 (antibody, V domains shown)
VH: EVQLLESGGGLVQPGGSLRLSCAASGFTFSKAWMSWVRQAPGKGLEWVSAISGSGGSTYYADSVKGRFTISRDNSKNTLYLQMNSLRAEDTAVYYCARLYSYGDFDHWGQGTLVTVSS
VL: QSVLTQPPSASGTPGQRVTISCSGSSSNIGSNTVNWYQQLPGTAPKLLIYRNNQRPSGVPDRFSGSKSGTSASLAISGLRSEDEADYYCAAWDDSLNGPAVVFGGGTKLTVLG

What was measured:
[1] = target: T1, human FGFR4 (FGF receptor 4) on cells (human, UniProt P22455 22-802); test: cell-based or functional assay
[2] = target: T1, human FGFR4 (FGF receptor 4) on cells; test: flow cytometry titration on Huh-7 cells
Method: Huh-7 cells (obtained from JCRB Cell Bank) were cultured in DMEM containing 10% FBS under standard conditions at 37° C. and 5% CO₂. Cells were harvested with 5 mM EDTA (in PBS) and 200,000 cells per sample were incubated with indicated anti-FGFR4 antibody (1:3 serial dilution; starting concentration 30 μg/ml) for 30 min at 4° C. After incubation, cells were washed and bound antibody was determined using a Phycoerythrin-labeled anti-human IgG antibody (Jackson Immuno Research). Antibody binding to Huh-7 was measured with a BD Accuri C6 flow cytometer (BD Biosciences, San Jose, Calif.; U.S.A.) and analyzed using the AccuriC6 software. Subsequently, the equilibrium dissociation constant (KD) was determined using Prism (GraphPad Software, La Jolla, Calif., U.S.A.).

[3] = target: T2, FGFR4 construct with Ig-like domain 1 (amino acids 22-180) on Hek293 cells (UniProt P22455 22-180); test: flow cytometry on Hek293 cells transfected with the FGFR4 (D1) construct, PE-conjugated anti-human IgG
T2 construct: range 22-180; Expressed on transfected Hek293 cells
Method: Hek293 cells were obtained from CLS and cultured in DMEM containing 10% FBS under standard conditions at 37° C. and 5% CO2. On Day 0, cells were seeded and after 24 h cells were transfected with plasmids coding for FGFR4 containing the indicated domain. Cells were allowed to express the proteins for 48 h and were then dissociated from the dish with 5 mM EDTA in PBS followed by incubation with indicated anti-FGFR4 antibody. Binding was determined using a Phycoerythrin-conjugated anti-human IgG antibody (Jackson Immuno Research Europe). Data was acquired with a BD Accuri C6 flow cytometer (BD Biosciences) and analyzed using the AccuriC6 software.

[4] = target: T3, cynomolgus monkey FGFR4 on transfected Hek293 cells (cynomolgus monkey); test: flow cytometry titration on transfected Hek293 cells
T3 construct: whole, on cells
Method: Hek293 cells were obtained from CLS (Cell Lines Service, Eppelheim; Germany) and cultured in DMEM containing 10%FBS under standard conditions at 37° C. and 5% CO2. On Day 0, cells were seeded at 4×10⁵ cells/10 cm dish. After 24 h, cells were transfected with plasmids coding for FGFR4 from rat, mouse, human or cynomolgus monkey. Cells were allowed to express the proteins for 48 h and were then dissociated from the dish with 5 mM EDTA in PBS followed by incubation with indicated concentrations of anti-FGFR4 antibody U4-3 or GT-13. Binding was determined using a Phycoerythrin-conjugated anti-human IgG antibody (Jackson Immuno Research Europe). Data was acquired with a BD Accuri C6 flow cytometer (BD Biosciences.) and analyzed using the AccuriC6 software. Antibody titrations experiment (starting concentration 10 μg/ml; 1:3 dilution) allowed calculation of the dissociation constants for the antibodies (see table below).

[5] = target: T4, extracellular domain of human FGFR4 (myc- and His-tagged) (human, UniProt P22455 22-369); test: ELISA, FGFR4 ECD (myc, His) captured by anti-His antibody
T4 construct: extracellular domain; Captured on the plate by a mouse anti-His tag antibody; also called human FGFR4-His/Myc; FGFR4 ECD; not shown: myc and His tags
Method: (§1) Mouse anti-His tag antibody was obtained from Bio-Rad (Hercules, Calif.; U.S.A.) and coated onto MaxiSorp® flat-bottom 96 well ELISA plates (Sigma, St. Louis, Mo.; U.S.A.) at a concentration of 2 μg/ml. After coating, the extracellular domain of human FGFR4 (myc- and His-tagged) was added at a concentration of 0.01 μg/ml. After removal of unbound protein, indicated antiFGFR4 antibody was added (1:4 serial dilution, starting concentration 10 μg/ml) and binding was finally detected with the AttoPhos® AP Fluorescent Substrate System (Promega) using an alkaline-phosphatase coupled goat anti-human IgG F(ab′) fragment on the Fluostar Omega fluorescent plate reader instrument from BMG Labtech (Ortenberg; Germany). Subsequently, dissociation constants were calculated for U4-3, -5 and -9 using Graph Pad Prism (Table 5).

[6] = target: T4, extracellular domain of human FGFR4 …; test: ELISA, FGFR4 ECD (myc/His) captured by anti-His antibody, AP-coupled anti-human IgG F(ab') detection
Method: as §1

[7] = target: T1, human FGFR4 (FGF receptor 4) on cells; test: cell-based or functional assay; remark: listed apart in the source
[8] = target: antigen of the Biacore assay (FGFR4; construct not stated) (UniProt P22455 22-369, limits assumed); test: Biacore T100, antibody captured by anti-human IgG, antigen injected, bivalent analyte model, KD1, average of 3
Method: Standard amine coupling was applied to prepare a goat anti-human IgG capturing S-CM5 sensor chip (the reference flow cell contained the capturing antibody as well). The carboxymethylated dextran (CMD) surface was activated by injecting a mixture of 200 mM EDC and 50 mM NHS for 7 min (10 μl/min). Subsequently, 30 μg/ml anti-human IgG antibody diluted in 10 mM Na acetate pH 5.0 was injected for 7 minutes (10 μl/min). The remaining unreacted esters were quenched with 1 M Ethanolamine pH 8.5 (7 min, […]). Surface densities of 17892-18376 RU were obtained for the antihuman IgG antibody.
Interaction analyses of antigen with reversibly captured antibody were performed using a Biacore™ T100 instrument (GE Healthcare Bio-Sciences (Piscataway, N.J.; U.S.A.)) at 25° C. in HBS analysis buffer (10 mM HEPES pH 7.4, 150 mM NaCl, 50 μM EDTA, 0.05% Tween 20). 37-38 RU of specific antibody was captured on a flow cell. […] The dissociation was recorded for 10 min at the same flow rate. […]
Data processing (e.g. blank run subtraction) and evaluation was performed by global fitting applying a bivalent analyte binding model using the Biacore T100 Evaluation Software version 2.0.3. The equilibrium dissociation constant KD1 was calculated by dividing kd1 with ka1.

Row | Binder | Elk1 luciferase reporter gene assay, % of control (+rhFGF 17), Fab at 0.1 µg/ml [1] | Elk1 luciferase reporter gene assay, % of control (+rhFGF 17), Fab at 1 µg/ml [1] | Elk1 luciferase reporter gene assay, % of control (+rhFGF 17), Fab at 10 µg/ml [1] | Kd [2] | other results
1 | B1 | 70.4 % of control (+rhFGF 17) | 39.6 % of control (+rhFGF 17) | 32 % of control (+rhFGF 17) | – | –
2 | B2 | 82.2 % of control (+rhFGF 17) | 28.8 % of control (+rhFGF 17) | 20.1 % of control (+rhFGF 17) | – | –
3 | B3 | 116 % of control (+rhFGF 17) | 43.2 % of control (+rhFGF 17) | 16.3 % of control (+rhFGF 17) | – | –
4 | B4 | 112 % of control (+rhFGF 17) | 43.8 % of control (+rhFGF 17) | 26.6 % of control (+rhFGF 17) | – | –
5 | B5 | 72.6 % of control (+rhFGF 17) | 33.1 % of control (+rhFGF 17) | 16.8 % of control (+rhFGF 17) | – | –
6 | B6 | – | – | – | 1.3 nM | –
7 | B7 | 65.2 % of control (+rhFGF 17) | 22.5 % of control (+rhFGF 17) | 12.7 % of control (+rhFGF 17) | – | –
8 | B8 | – | – | – | – | binding result [3]: no binding; Kd [4]: 0.32 nM
9 | B9 | – | – | – | – | Kd [5]: 0.07 nM; EC50 (read off the curve) [6]: ~0.08 nM; IC50, NIH3T3 spheroid growth assay (CellTiter-Glo) [7]: 10.6 nM; Kd [8]: 0.12 nM
10 | B10 | – | – | – | 1.5 nM | Kd [5]: 0.08 nM
11 | B11 | – | – | – | 1.6 nM | –
12 | B12 | – | – | – | 0.46 nM | –
13 | B13 | – | – | – | 0.85 nM | –
14 | B14 | – | – | – | 0.15 nM | –
